Laboratory results from patent EP0758381B1.

Columns and labels:
[1] = molecular target: Eck receptor chimera (ectodomain of the Eck receptor fused to the cytoplasmic domain of the FGF receptor) on BAF cells; test: cell-based or functional assay
[2] = molecular target: Elk receptor on transfected 3T3 fibroblasts; test: cell-based or functional assay

Row | Substance | potency in the proliferation assay, clustered against unclustered ligand [1] [fold] | potency in the phosphorylation assay, clustered against unclustered ligand [2] [fold]
1 | soluble Efl-2 (EHK-1L) produced in COS cells (ligand) | 100 | –
2 | soluble myc-tagged Efl-1 (B61) (ligand) | 100 | –
3 | soluble myc-tagged Efl-3 (ELK-L) (ligand) | – | 100
